Measurements as given in the DeepSol protein solubility set.

assay: soluble on expression in E. coli; label from the status in PepcDB or PDB records

Soluble on expression in E. coli, soluble:
AWVDQTPRTATKETGESLTINCVLRDASFELKDTGWYRTKLGSTNEQSISIGGRYVETVNKGSKSFSLRISDLRVEDSGTYKCQAFYSLLLRDYNYSLLFRGEKGAGTALTVKAAA
MAEASPQPGRYFCHCCSVEIVPRLPDYICPRCESGFIEELPEETRNTENGSAPSTAPTDQNRQPFENVDQHLFTLPQGYSQFAFGIFDDSFEIPTFPPGAQADDGRDPESRREREHQSRHRYGARQPRARLTARRATGRHEGVPTLEGIIQQLVNGIISPAAVPSLGLGPWGVLHSNPMDYAWGANGLDTIITQLLNQFENTGPPPADKEKIQALPTVPVTEEHVGSGLECPVCKEDYALGESVRQLPCNHLFHDSCIVPWLEQHDSCPVCRKSLTGQNTATNPPGLTGVGFSSSSSSSSSSSPSNENATSNS
MAHHHHHHMHPFYTIRYPPSKGSNESQPILVTDTAIEPLFFCIVYSIEFQCPVQTTESRTANSRSSSFPFGGRASGSGGKREANELHVCPVENTSKLLGNVTYVSCLDHNPTLLASLQTAVDAARAIPIPEDEQKVPLQLCVRLLHKQTRWLWEESRPLVEWTFKIVKTRGLSYAAVPEASSGASARNTNVEFVHASGPAQIREVLQFILKHSYEAIDLNTFSDFKSGELVFEVFVDQAR
MAEAYLEYLGKHDVLTKLHNRAFYSDELNRLERSALRPVSAIVIDLNGLKEANDKLGHDAGDALLRRVGEVLNGVVTAPNHAARIGGDEFAILLPGADKQVAAAMVDTVYELLKINNQFYSSAPLSLSLGVATTEAGETMESLVRRADMNMYEQKNAYYAALRNRSADNNDTTKGLEHHHHHH
MASTNTNLQKAIDLASKAAQEDKAGNYEEALQLYQHAVQYFLHVVKYEAQGDKAKQSIRAKCTEYLDRAEKLKEYLKKKEKKPQKPVKEEQSGPVDEKGNDSDGEAESDDPEKKKLQNQLQGAIVIERPNVKWSDVAGLEGAKEALKEAVILPIKFPHLFTGKRTPWRGILLFGPPGTGKSYLAKAVATEANNSTFFSISSSDLVSKWLGESEKLVKNLFQLARENKPSIIFIDEIDSLCGSRSENESEAARRIKTEFLVQMQGVGVDNDGILVLGATNIPWVLDSAIRRRFEKRIYIPLPEAHARAAMFRLHLGSTQNSLTEADFQELGRKTDGYSGADISIIVRDALMQPVRKVQSATHFKKVRGPSRADPNCIVNDLLTPCSPGDPGAIEMTWMDVPGDKLLEPVVSMWDMLRSLSSTKPTVNEQDLLKLKKFTEDFGQEG
GPHMTTIEDEDTKVRKQEIIKVTEQLIEAISNGDFESYTKMCDPGMTAFEPEALGNLVEGLDFHRFYFENLWSRNSKPVHTTILNPHIHLMGDESACIAYIRITQYLDAGGIPRTAQSEETRVWHRRDGKWQIVHFHRSGAPSVLPH
MYIPKHFESMELSRYKLSKKPPLGTLFSSKASRQGFFGWRTSSNKDDPDFGMCASHIPFVFVEFDNGEHKLIAHLARKNKHVEMLERVQKCLVVFQSVDSYISPAWFPMKKKTHKFVPTWDFAAVHVYGTPRIIRDDKDWLINMLSTLTDQEEEKRPEGENVRSKVERF
MGHHHHHHSHMPDHGDWTYEEQFKQLYELDGDPKRKEFLDDLFSFMQKRGTPVNRIPIMAKQVLDLFMLYVLVTEKGGLVEVINKKLWREITKGLNLPTSITSAAFTLRTQYMKYLYPYECEKRGLSNPNELQAAIDSNRREGRR
MLTREDIFKHVKEKYGTSPDYPWEKYPNYASLRHTSNKKWYGLIMNVLPEKLGLDGHGEIDILNLKCPPEISDRLRNGENILPGYHMDKEHWISIVLERTDPEGEIYNLIEQSFHLTKLEHHHHHH
SGKGGWLLNFLNHAKNQESVENLDKNGAVKAPSSGFKMPLHYPRYTKEDYEEMEEWRLDLLLSEYGLLAFHDNTLHEKRAFAIDTFIWPHHP

Soluble on expression in E. coli, not soluble:
GPGSMSNNMLALPKVLLMGLRKSGKSSIQKVVFEGMQPHDSATLATTVQPEKSTVHSNDFVNFEVWDFPGQNDPFDSSNASRYDVNQLLENCGAIVYVLDCRELIDDARARLLDTISAAYRHNPELCVEVFIHKVDALSEDHQADLLASLQRRVEEEAKPLLENVQPLRLNFNLTSIYDHSVFQAFSLVVQKLIKSKTPYITELLQMLNSNSNIDLSYLFLSHSKIYVAVDERNRLKSRTYDLCSDAIEVVVKMSGIYMRQRDGVAGGVKDAFTDSVHSLAASATSRTIISSSLGSADGCASDVSELYRGANAVIQLSNEDCIYVRELPSSLTLVLMMKQTHLENRALIDRNVDIFYKAAFDIFSTSAS
MYTHNSSDSIDCNIQSLYRGPQPGRYVRPTGKAVKQVKMEPYSPYSWGDKPYHSLNYYLKQTFGEKIYKLALDGAMTCPNRDGTLGTGGCIFCSGGGSGDFAEPQHASVTEQIEAAKARVSAKIKNGRYIAYFQSYTNTYAPVDYLEALFREAVSHPDIAALSIGTRPDCLPPQVIRLLKEINKEKPVWIELGLQTIHESTAELIRRGYELPCFIDAVRRLKEAGLTVIVHVILGLPGETEDMMLETIRFLANHTPPVDGIKLQLLHVLKGTKLAALYEAAPFPVMTMEEYIDLILKCIRLLPPHIVIHRLSGDGPKKLLIAPEWSGNKRLFLNSLTRALRETGAYQGEWHRPRQP
MSEKEIWDKVLEIAQERISNTSYQTFIKDTQLYSLKNDEAIILVSLPFNASWLNQRYSEIMQAIIYDVIGYEVKPHFISEDELASYNNVNTQEVQEPQVQHSSIDDKTWGKEQFNMHNTFDTFVIGPGNRFPHAASLAVAEAPAEAYNPLFIYGGVGLGKTHLMHAIGHHVLSNKPNAKVIYTSSEKFTNEFIKSIRDNETEAFREKYRKIDVLLIDDIQFIQNKEQTQEEFFHTFNELHQNNKQIVISSDRPPKEIAKLEDRLRSRFEWGLIVDITPPDYETRMAILQKKIEEENLDIPPEALNYIANQIQSNIRELEGALTRLLAYSKLQGKPITTELTAEALKDIIQSPKSKKITIQDIQKVVGQYYSVRIEDFSAKKRTKSIAYPRQIAMYLSRELTDFSLPKIGEEFGGRDHTTVIHAHEKIANDIKSDPTFKQEVENLEKEIRNQLEHHHHHH
MGSDKIHHHHHHMTTRVIALDLDGTLLTSKKTILPASLEALARAREAGYQVIVVTGRHHVAIHPFYQALALDTPAICCNGTYLYDYHAKKVLAADPMPVEQAVSLTAMLAKQQIHGLAYVDDAMLYEHPTGHVIRTRNWAQALPEDQRPVFAQVDSLAQAVREVNAVWKFALTDDDIPRLQRFAQQVGETLGLECEWSWHDQVDIARAGNSKGKRLAQWVADQGLSMQDVMAFGDNYNDLSMLEAAGTGVAMGNAVDEVKARANIVIGDNESTSIAEFIYRQLL
QSTVKIILEEDTETLDEVVVVGYGVQKKSDVTGAMARVTSKVIEDRPVQNALQAMQGRVTGVDITSNNRPGELGDIRIRGNRSLTADNNPLYVIDGIPMSAGSIADVNPSDIESMEILKDASATAIYGSRGANGVILVTTKKGKTGR
MGRRVLLSFLGLGDYEYCYYTYEGKTSTYTRFIQTAVYELFRNDEPMDVVVFATKEAQDRNGQDRKKGDKLLEGIGTAFSRIAPEANVKIVEIESGQDEQANWRLFDRIMDEIKEGDTIYFDITHSFRSIPFVALIVLNYARLVKKADIGAIIYGWFEVLGRPIDVEQMPEEQRVAPIVNLTSMAKLLDWTNGVDQFLRTGDASIIQALTAKENSEVFRNPSLSQAVKDEVKELRELTKRLDQTEKAIRTCRSLQIDEEVQKFHEQLGRVRSASAEAIKPLVPLLDVMEKKYAMFDDDPIMNSWKAVRWCLDHGLIQQALTMLEENAVTAVCRVLGLDLRNEKARGDVHSAIEILLRDIPKEEWRVRSVERVEQIIDFLSPYKGDLKRFSTLKERRNDINHAGARPQPLKAEKFWPDAEQSFRELGAFFERMSALAKSMQTVKGNG
MGSDKIHHHHHHMSSSAPIDYAALADRIHTWGRELGFQQVGITDTDLAAHERYLERWLAAGYHGEMHFMAKHGSKRTRPEELVPGTLRVVSVRMDYLPPEVETTKVLGQPERAYISRYALGRDYHKLIRKRLATLAKRIEDEVGAYGYRAFVDSAPVMERALAQKAGLGWFGKNAMLLNPQAGSLFFLGELYTDLPLPVDAPFDSEHCGKCSRCQTACPTGAIVDDKVIDSRRCISYLTIELAGSIPEEYREAMGNRVYGCDDCQLVCPFTRFTRVSREDDFAPRHDLDRASLVRLFAWSEEEFLARTEGSAIRRIGYERWLRNLAIGLGNAPWSDQVESALRARLAYPSDLVREHVRWGLEQQRRKRERRIASDVDAPAAPERSA
MGSDKIHHHHHHMPTVKLTKNITIMTGSPNTLIYDNRVVIDLGGKNSSVDINAEVQLATHGHADHIAGLLKKDAKIRYLPKEDYWSLTLMGRRAMIYGCSSKDSDIFTFDYVKENIESIDIEVRTSEIEVIKLPGHTPGHSGYIVDNVLYAGDAFFGEKVLEGFSVPFYTDFWTALESLNKVKELAKSVNNIVISHGPVYTNKNKMVSILESNIIYAQNLIGKILDMLSNNELTVEEIVVKLKQDLTPSNVLLNSVVVRSILFGLENIEYNVSQKGLVFRRRVH
MGSDKIHHHHHHMSGFLAVKFPVKEASVADQQDFLGRFDAMSSKATATVIAHYSSSFTLASKLLSPKIRRDIEALYAMVRVADEVVDGAAAAAGCAPDAVAEILDNYERQVLLSLSVPFHTDPVIHAFGNTARKCGFEQAHIVAFFDSMRRDLSQTSYDPTQLDEYIYGSAEVIGLMCLKIFLQDSTASPQDRATMEHGARRLGAAFQKVNFLRDLAEDREGLGRSYLPVFTEEMRDEIVTDIREDLDAARLSIPLLPFGARTGVRAATDLYGCLVDNLESASLEDLKNGRIRVPSMKKASLATKAMWKEVFQK
MGSDKIHHHHHHMSASMPAYMSDPTDEQLSALNMAMDHKSFKVVAYAGAGKTTTLKLIGERLRGRGLYLAFNKAIANDARAKFPSHVECRTFHSLAYRHVARDITAKLSLPRFSPKRLGDDLGLQPVQVRRQMDGVNKYITLTPARLSRFVSDAISNFCSTHASYPAPRHILFPSWLDGSDAEQLREMLYPAVEQRWLQSIDARHPAGIGHDIYLKLWALSKPSIPADFILFDEAQDADPLMMGILTQQPRQVIYVGDAHQQIYEWRGAVNAMKRLPLPQTLLTQSFRFGEPIAEIANTLLKALQEDVPLKGNPNKQSSTDKGMVHSKKDAILCRTNAAAMSQLLTGLKLGHKVALQADTDRMLKFCQAAENLKNGKSAYGVPELAYFYNWGDVQEYSETNEGSDLKTLVKLVDDHGTNVLSQAVNSLSSIENADYVISTAHKAKGLEWGKVQLDDDFYYDVTTNAVKISPEELRLLYVACTRAQSNLDIHNIKDLISGLQTGKKVVFGNS
MGSDKIHHHHHHMLKELHLQQVGPAAHFDVAFADRLNIFTGDNGLGKSFLLDIAWWVMTTNWAEQPAYPQRVKGENPQITAVVSNKKNIREYQSQFDFSEQQWRNLQMPPLLKEVVIYVRVDGSFSIFDPARQRDIAYNFNPNTLWNGLKSKDKVICNGLIQDWVTWQNQPNKYPFELFSNVIKKLAPHPSEWIEVGETTRVSIEDVRDIPTVNLPYGNVPVTQTSAGMKRILGLAYLLVWTWYEHKKASELRQQKPVNQIVLLIDEIESHLHPRWQRVILPAILSVVTELQPRMKIQALVTTHSPLILASLEPNFHEQEDKLFLFKLQDSEVSLDEVPWSKQGDIVGWLTSDIFGLKQARSKEAEIAIEAAEAWMRDDDMNTFPENLRISTQIHQELQRVLPGHDPFWPRWIVTTEKRNSGLSGV
